From patent publication CN107022030A (GUANGDONG GUYING BIOTECHNOLOGY INDUSTRIAL RES INSTITUTE CO …, dated 2017)
Values belong to the binder of their own block, whether it stands above or below them.

Legend:
[1] = target: T1, 人血清白蛋白(human serum albumin，HSA) (human, UniProt P02768 25-609); assay: indirect ELISA, HSA as cross-reaction antigen
T1 construct: Used at 40 mg/ml as the cross-reaction antigen; also called HAS

[2] = target: 人甲胎蛋白(human alpha fetoprotein，hAFP) (human) (UniProt P02771); assay: ELISA titre of ascites antibody on hAFP
Chain of UniProt P02771 (P02771 19-609): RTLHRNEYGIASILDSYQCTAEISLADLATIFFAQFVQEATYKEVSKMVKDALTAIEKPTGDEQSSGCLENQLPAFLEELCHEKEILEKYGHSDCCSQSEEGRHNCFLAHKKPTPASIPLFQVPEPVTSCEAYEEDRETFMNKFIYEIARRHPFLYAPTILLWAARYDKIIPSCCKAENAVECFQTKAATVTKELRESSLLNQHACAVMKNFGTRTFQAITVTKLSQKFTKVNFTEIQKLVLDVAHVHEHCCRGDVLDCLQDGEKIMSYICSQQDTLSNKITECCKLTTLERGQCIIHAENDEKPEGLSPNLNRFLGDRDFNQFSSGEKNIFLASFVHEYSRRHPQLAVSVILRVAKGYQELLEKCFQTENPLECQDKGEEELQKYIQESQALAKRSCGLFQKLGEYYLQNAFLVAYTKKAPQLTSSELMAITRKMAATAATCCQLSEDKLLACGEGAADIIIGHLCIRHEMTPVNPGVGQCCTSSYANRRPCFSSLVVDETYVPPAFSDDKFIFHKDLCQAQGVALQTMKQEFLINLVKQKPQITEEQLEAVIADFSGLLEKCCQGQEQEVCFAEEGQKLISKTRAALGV

T1 sequence (P02768 25-609): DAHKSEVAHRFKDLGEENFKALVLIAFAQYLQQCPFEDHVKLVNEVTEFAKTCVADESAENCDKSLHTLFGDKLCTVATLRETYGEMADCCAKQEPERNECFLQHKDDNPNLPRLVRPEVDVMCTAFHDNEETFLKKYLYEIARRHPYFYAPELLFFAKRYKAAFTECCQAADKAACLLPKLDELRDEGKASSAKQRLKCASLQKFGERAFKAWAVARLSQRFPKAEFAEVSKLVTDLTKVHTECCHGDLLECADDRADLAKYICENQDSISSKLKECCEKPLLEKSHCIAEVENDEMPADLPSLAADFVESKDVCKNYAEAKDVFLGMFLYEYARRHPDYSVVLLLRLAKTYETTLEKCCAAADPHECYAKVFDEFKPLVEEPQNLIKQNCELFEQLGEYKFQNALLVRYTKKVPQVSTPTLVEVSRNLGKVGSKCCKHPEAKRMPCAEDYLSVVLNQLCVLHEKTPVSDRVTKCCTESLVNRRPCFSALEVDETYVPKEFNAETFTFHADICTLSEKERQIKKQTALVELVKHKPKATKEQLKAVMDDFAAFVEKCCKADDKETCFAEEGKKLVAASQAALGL

binding result [1]: no binding (tested: 40mg/ml)
B1: 单克隆抗体Ab3 (antibody, V domains shown)
VH: VKLQESGAELVKPGASVKLSCTASGFNIKDTYMHWVKQRPEQGLEWIGGIDPANGKTKFDPKFQGKATITADTSSNTAYLHLSRLTSDDTAVYYCVRGQVGGRGWFAYWGQGTTVTVSS
VL: DIQLTQSPSSLSASLGERVSLTCRASQEISGYLSWLQRKPDGTIKRLIYAASTLDSGVPKRFSGSRSGSDYSLTISSLESEDFADYYCLQYASYPYTFGGGTKL
notes: Mouse monoclonal IgG from hybridoma ascites, Protein G purified; HRP-labelled in the immunohistochemistry; also called Ab3-HRP

腹水效价 [2]: < 3e+07
B2: 单克隆抗体Ab4 (antibody, part only; not given: light chain variable region, constant regions, V domains shown, part only)
VH: VKLQQSGPELVKPGASVTLSCKASGYTFTSYYIHWVKQRPGQELEWIGWIYPGNVNTKYNEKFKGKATLTADKSSSTAYMQLSSLTSEDSAVYFCARCSGRLYYAMDYWGQGTTVTVSS
